# Source: PMC2958304
# Biological target: Fat (Ft), full-length (pAct-ft) (Drosophila) (UniProt P33450)
# Experiment: cell aggregation assay; S2 cells transfected with ft mixed with S2 cells transfected with ds (one set cotransfected with pMK33B fj forms, with or without CuSO4 for 16 hr); rotated 100 rpm 2 hr, immunolabelled; percent of ft-expressing cells binding to ds-expressing cells counted
# Sequence of UniProt P33450 (P33450 36-5147): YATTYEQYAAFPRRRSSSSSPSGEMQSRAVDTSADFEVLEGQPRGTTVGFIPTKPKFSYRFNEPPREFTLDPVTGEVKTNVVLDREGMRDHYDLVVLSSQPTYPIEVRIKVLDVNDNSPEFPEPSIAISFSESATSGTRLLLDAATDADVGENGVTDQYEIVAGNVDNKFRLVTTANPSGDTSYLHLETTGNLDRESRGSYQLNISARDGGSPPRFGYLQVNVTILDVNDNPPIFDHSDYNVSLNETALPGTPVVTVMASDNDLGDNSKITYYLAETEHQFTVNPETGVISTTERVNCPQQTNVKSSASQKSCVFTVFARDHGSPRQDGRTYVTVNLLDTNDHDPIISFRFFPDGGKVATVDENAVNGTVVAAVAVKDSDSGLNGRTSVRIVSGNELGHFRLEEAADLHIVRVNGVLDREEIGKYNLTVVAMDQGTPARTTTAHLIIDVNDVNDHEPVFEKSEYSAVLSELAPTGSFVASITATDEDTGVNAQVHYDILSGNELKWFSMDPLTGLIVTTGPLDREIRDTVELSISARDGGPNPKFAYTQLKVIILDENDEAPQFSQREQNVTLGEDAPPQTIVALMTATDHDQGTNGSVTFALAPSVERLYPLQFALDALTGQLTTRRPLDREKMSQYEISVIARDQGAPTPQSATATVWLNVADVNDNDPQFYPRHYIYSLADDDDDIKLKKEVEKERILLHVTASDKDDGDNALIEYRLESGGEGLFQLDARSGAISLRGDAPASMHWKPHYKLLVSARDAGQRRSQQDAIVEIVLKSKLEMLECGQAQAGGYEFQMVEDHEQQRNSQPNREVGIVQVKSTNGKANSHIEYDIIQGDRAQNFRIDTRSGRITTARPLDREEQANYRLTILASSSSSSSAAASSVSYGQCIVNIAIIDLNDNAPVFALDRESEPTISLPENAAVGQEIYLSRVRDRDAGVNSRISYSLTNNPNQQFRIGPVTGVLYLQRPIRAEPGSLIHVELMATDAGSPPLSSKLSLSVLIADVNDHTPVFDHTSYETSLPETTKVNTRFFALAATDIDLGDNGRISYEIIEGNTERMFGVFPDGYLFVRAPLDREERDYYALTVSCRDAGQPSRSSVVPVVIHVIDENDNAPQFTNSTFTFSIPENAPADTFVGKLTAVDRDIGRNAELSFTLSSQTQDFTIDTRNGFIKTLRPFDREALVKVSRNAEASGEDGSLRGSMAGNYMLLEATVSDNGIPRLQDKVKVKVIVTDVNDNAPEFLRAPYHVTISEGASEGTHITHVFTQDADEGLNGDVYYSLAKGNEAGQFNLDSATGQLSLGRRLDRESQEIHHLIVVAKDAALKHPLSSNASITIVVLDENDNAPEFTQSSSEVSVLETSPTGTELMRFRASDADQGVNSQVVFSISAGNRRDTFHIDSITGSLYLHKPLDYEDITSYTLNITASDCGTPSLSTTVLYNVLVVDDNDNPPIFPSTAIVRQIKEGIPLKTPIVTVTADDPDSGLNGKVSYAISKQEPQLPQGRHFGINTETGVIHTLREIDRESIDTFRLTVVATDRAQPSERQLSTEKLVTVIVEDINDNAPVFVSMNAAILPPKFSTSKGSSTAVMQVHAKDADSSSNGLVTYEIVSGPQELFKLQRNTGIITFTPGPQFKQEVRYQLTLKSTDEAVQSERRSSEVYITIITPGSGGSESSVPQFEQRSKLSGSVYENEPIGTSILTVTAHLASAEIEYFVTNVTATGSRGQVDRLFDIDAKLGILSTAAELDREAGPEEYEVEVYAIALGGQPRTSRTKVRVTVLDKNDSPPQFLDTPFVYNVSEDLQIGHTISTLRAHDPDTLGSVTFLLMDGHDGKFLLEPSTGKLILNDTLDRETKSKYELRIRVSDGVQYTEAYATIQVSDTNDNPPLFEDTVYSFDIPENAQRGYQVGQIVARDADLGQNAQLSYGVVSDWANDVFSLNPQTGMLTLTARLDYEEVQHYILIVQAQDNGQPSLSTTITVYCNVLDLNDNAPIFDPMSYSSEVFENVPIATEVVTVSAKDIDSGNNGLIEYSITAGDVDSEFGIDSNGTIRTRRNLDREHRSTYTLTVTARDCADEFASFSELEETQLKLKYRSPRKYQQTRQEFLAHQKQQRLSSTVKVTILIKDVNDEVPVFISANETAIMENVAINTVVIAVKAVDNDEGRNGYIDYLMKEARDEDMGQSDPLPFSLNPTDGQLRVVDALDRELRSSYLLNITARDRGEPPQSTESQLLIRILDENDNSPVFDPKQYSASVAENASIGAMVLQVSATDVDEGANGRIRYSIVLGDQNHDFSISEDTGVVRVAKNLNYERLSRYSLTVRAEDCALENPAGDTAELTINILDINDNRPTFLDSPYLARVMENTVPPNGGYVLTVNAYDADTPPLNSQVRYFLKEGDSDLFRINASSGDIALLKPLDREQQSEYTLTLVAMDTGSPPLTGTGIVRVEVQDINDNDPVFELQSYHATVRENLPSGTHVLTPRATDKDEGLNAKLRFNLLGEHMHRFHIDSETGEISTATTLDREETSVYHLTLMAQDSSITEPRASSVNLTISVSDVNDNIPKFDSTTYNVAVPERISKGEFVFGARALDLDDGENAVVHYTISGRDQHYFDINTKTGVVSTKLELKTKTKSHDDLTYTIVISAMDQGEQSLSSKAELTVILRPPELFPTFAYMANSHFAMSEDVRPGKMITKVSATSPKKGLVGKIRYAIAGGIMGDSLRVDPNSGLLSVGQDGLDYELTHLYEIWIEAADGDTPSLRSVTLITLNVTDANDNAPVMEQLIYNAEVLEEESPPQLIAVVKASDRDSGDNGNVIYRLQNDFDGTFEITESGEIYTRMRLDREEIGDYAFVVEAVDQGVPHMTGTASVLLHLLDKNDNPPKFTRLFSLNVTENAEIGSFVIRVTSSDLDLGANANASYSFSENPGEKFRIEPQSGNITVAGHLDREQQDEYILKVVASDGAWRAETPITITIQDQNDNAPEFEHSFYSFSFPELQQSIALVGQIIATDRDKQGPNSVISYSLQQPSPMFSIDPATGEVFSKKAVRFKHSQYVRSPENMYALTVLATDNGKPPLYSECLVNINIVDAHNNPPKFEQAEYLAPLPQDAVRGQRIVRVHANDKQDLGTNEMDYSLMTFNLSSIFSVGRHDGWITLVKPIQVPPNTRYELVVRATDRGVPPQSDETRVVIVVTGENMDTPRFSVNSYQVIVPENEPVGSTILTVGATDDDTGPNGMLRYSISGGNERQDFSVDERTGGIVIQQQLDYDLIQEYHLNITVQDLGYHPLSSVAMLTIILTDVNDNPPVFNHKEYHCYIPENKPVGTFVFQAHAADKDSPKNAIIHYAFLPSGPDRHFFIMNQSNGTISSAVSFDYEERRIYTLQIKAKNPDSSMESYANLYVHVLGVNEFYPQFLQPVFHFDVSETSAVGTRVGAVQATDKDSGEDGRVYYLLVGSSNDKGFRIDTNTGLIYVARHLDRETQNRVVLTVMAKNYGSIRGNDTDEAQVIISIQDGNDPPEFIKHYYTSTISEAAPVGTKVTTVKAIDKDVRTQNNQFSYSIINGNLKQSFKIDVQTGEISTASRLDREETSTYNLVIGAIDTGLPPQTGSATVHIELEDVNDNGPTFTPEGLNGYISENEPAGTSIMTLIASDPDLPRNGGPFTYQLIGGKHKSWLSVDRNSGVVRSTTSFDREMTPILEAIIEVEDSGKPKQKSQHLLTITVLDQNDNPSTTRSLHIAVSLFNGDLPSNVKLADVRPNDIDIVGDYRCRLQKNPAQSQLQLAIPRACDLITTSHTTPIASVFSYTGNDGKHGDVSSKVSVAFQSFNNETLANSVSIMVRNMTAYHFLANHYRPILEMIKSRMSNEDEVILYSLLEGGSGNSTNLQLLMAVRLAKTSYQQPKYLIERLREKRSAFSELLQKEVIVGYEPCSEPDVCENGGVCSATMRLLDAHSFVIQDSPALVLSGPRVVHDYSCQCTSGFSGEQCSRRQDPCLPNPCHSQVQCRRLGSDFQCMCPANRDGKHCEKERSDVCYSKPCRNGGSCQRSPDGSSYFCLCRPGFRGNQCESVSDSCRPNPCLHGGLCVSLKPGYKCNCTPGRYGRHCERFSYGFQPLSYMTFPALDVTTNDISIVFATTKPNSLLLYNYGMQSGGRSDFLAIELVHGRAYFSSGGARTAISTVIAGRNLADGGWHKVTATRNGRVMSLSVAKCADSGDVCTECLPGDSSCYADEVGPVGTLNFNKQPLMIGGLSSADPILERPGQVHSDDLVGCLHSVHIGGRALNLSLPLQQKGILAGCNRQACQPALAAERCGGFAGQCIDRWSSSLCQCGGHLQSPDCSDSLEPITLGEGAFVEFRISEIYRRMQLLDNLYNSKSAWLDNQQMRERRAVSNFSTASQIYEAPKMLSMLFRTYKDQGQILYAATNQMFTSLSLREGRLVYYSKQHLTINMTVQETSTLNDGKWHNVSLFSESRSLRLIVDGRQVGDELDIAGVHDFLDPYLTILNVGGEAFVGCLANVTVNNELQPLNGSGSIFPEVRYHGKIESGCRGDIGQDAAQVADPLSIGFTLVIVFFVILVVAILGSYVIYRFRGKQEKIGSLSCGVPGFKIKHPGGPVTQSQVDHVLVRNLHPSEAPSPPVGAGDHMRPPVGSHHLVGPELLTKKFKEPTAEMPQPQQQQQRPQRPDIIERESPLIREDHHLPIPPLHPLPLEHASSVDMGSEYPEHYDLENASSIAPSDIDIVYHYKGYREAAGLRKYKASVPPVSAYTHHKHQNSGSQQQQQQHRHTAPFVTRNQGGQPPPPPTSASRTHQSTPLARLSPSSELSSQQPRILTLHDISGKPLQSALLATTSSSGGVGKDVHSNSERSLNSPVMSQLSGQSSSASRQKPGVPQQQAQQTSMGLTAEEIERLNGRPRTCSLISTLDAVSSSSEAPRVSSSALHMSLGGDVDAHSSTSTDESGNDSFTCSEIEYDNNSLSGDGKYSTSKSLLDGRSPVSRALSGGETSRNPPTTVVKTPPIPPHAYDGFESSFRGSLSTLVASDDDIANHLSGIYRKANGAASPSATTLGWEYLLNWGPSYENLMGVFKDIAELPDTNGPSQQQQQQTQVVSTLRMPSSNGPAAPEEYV
substance,measurement,value
"Dachsous (Ds), untagged form, coexpressed with Fj or GNT-Fj (phosphorylated by Fj) (receptor)",reduction of binding against the same cells without Fj induction,40%
